Experimental data taken from the supplement of paper PMC9170038.

Tested on: MS2 coat protein
Assay: apparent KD of MS2 coat protein; designed switch direction (-1 OFF switch, 1 ON switch): -1; higher = weaker reporter binding
Procedure, shortened: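 Transcription of designed RNA switches on Illumina chips was done by stalled E. coli RNA polymerase. SNAP-549-labelled MS2 coat protein was then titrated in doubling steps from 0.7 or 1.5 nM to 3 µM, with steps of 0.8–1.5 h at the lowest and 10–20 min at the highest concentration. The per-design median over clusters of curve-fitted normalised fluorescence is reported as apparent KD.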

[1] = Eterna round: R95, input ligand: FMN 200 uM
[2] = Eterna round: R95, input ligand: microRNA oligo, concentration not stated
[3] = Eterna round: R95, input ligand: none
[4] = input ligand: microRNA oligo, concentration not stated

| Sequence | apparent KD of MS2 coat protein [1] [nM] | apparent KD of MS2 coat protein [2] [nM] | apparent KD of MS2 coat protein [3] [nM] | apparent KD of MS2 coat protein (input ligand: FMN 200 uM) [nM] | apparent KD of MS2 coat protein (input ligand: none) [nM] | apparent KD of MS2 coat protein [4] [nM] |
| --- | --- | --- | --- | --- | --- | --- |
| GGUCGGCGAGGAUAUACAUGAGGAUCACCCAUGUGAUAUAGUGCACGCGUACGUGUACGUAGAAGGCGCUGACG [JL-ex3-3.26 salish99 mod] (puzzle: Exclusion 3) | 39.6 | 11.2 | 15.1 | – | – | – |
| GUAGAGUGAGGAUAUACGAGAUCGAAAGAUCAACGAUCCAAACAUGAGGAUCACCCAUGUAGAAGGCACUCUAC [Eli x2 4.008] (Eterna round: R97, puzzle: Exclusion 2) | – | – | – | 270 | 27.1 | – |
| GCAUCCAAUGUGAGGAUAUACCUCUGGAUACAUAGGUAGAAGGCACAUGAGGAUCACCCAUGUUCCAAGGAUGC [Fiskers BMX 4 - 30] (puzzle: Brourd's mod of Exclusion 4) | 183 | 65 | 82 | – | – | – |
| CUGUACUGAGGAUAUACAUGAGGAUCACCCAUGUGAUCUAGUGCACGCGUACGUGUACGUAGAAGGCAGUACAG [Mat - Exclusion 3 - Eli Mod - D38] (Eterna round: R97, puzzle: Exclusion 3) | – | – | – | 792 | 56.5 | – |
| CUGGUUCUAGGAUAUGCACUCACGAUCCUCCUUCAAUCGCAACAUGAGGAUCACCCAUGUAGAAGGAGAAAGUA [Eternabot (L1) Solution 91] (Eterna round: R97, puzzle: Exclusion 2) | – | – | – | 18.5 | 18.6 | – |
| GGUCCACAUGAGGAUCACCCAUGUUAGGAUAUCUCCUGCCUCCUAAAUGGAAGCAGACAGAGAAGGAACAUCAA [Soanatra] (puzzle: Exclusion 1) | – | 24.5 | – | – | – | – |
| AAUCCUGAAGUUAGGAUAUGAAGUAUCACUGCACUUCAGAAGGGACUUGAGGAUCACCCAAGUAGCCGUGAGGC [jl-bmx4.4.61 ViennaUCT mod] (Eterna round: R97, puzzle: Brourd's mod of Exclusion 4) | – | – | – | 156 | 35.6 | – |
| UGUAGUUCAGGAUAUGAUGUUAAAUACAUGAGGAUCACCCAUGUAGAUCCUGAAUUUACAUCAGAAGGGAAUAUUU [JL-ex5-4.56 Brourd mod] (Eterna round: R97, puzzle: Exclusion 5) | – | – | – | 22.8 | 17.1 | – |
| CUGACUCAAGGAUAUUGUACUGCUGACAUGAGGAUCACCCAUGUAUGUUAACUCGGCCGACGAGAAGGUGACAAAA [BotMod 7 - Jieux - Exclusion 5] (Eterna round: R97, puzzle: Exclusion 5) | – | – | – | 126 | 111 | – |
| GUGCUACAUGAGGAUCACCCAUGUCAGGAUAUGCGAAUUUCAUCAAAAGAUGAAAUUUGCAGAAGGGACAACAC [Omei Ex1 A18] (Eterna round: R97, puzzle: Exclusion 1) | – | – | – | 88.2 | 38.5 | – |
| AGUCGGCGAGGAUAUACAUGAGGAUCACCCAUGUGAGAGAAUAAAGUGAGUUAGACAAGUAGAAGGCGCUGACA [JL Lego Mod 10] (Eterna round: R96, puzzle: Exclusion 3) | – | – | – | 356 | 48.1 | 40.9 |
| GUAAUUAAUGUAGGAUAUGCAAGGCGAACCUAAGCAGAAGGACAUGAGGAUCACCCAUGUAUUGCGGUCUGCGUUCUGAUCGCU [salish99_ExNG1_r4_010] (Eterna round: R96, puzzle: Exclusion NG 1) | – | – | – | 19.1 | 17 | 8.25 |
| GUAAAGGUAGGAUAUACGAAGAAAAAGGGUAGAAGAAGAACACAUGAGGAUCACCCAUGUAGAAGGACCAAAUG [Mat - Exclusion 2 - Mod of my Tesla design - D4] (puzzle: Exclusion 2) | 63.9 | 24.8 | 28.5 | – | – | – |
| GAAAAGUGAGGAUAUGGUAAAAGAAAAAGAAGAAGAAAACUCCAGAAGGCACAUGAGGAUCACCCAUGUGAAAG [salish99_ex4_r3_007] (puzzle: Exclusion 4) | 22.2 | 17.4 | 15.7 | – | – | – |
| CCAGGCGUCUUGGCUCGUCUUAUUUGGAGAGGAUUGAUAACAUGAGGAUCACCCAUGUGUGUGGGAGCGUUGCAGUG [JR_SV3TOV2_Sub019] (puzzle: Sensor v3, turn-off variant 2) | 75.5 | 137 | 102 | – | – | – |
| UCCUGACAUGAGGAUCACCCAUGUGAGGAUAUGUGGUUCGGGUCAACUCCCGUUCCGUGCAGAAGGCACAGGGC [EX1 A.29] (Eterna round: R97, puzzle: Exclusion 1) | – | – | – | 26.4 | 16.2 | – |
| AUAAUACAUGAGGAUCACCCAUGUGAGGAUAUACGACUCCAACCUAACAGCUUGGACCGUAGAAGGCACAAGGG [Exclusion 1 (MOD1.2 Esqu)] (Eterna round: R97, puzzle: Exclusion 1) | – | – | – | 54.5 | 261 | – |

| Sequence | apparent KD of MS2 coat protein [1] [nM] | apparent KD of MS2 coat protein [2] [nM] | apparent KD of MS2 coat protein [3] [nM] | apparent KD of MS2 coat protein (input ligand: FMN 200 uM) [nM] | apparent KD of MS2 coat protein (input ligand: none) [nM] | apparent KD of MS2 coat protein [4] [nM] |
| --- | --- | --- | --- | --- | --- | --- |
| AAGAGUAGAGGAUAUACGAAAAAAGAGUCGAAAGACUCGGGACAUGAGGAUCACCCAUGUAGAAGGCUACUCAA [Hyphema Seclusion Mod 62% 5] (Eterna round: R96, puzzle: Exclusion 2) | – | – | – | – | – | 19.4 |
| ACAAGCUUUUUGCAUCAAGCAUUAAAGUCUGUGAUCGUAACAUGAGGAUCACCCAUGUAAGUUUUAUGUCGUCUUAU [JR_SV3TOV2_Sub097] (puzzle: Sensor v3, turn-off variant 2) | 39.7 | 48.3 | 41.1 | – | – | – |
| GCAGGCGUCUUGGCUCGUCUUAUUUGGAGAGGAUUGAUAACAUGAGGAUCACCCAUGUGUGUGGGAGAGUUGCAGUG [JR_SV3TOV2_Sub017] (puzzle: Sensor v3, turn-off variant 2) | 293 | 203 | 374 | – | – | – |
| ACAUGUUGCGCAGGAUAUGGGACACAUGAGGAUCACCCAUGUGGUUUCAUGUCUAACCAAGCGUCCCAGAAGGGCGUGAACAUG [Ex NG2 #30] (Eterna round: R96, puzzle: Exclusion NG 2) | – | – | – | 41.8 | 19.9 | 20.8 |
| GCAGCGUAUGUAGGAUAUCGGUCAGUUUCUGAUCGAGAAGGACAUGAGGAUCACCCAUGUUAAGUCAUGCGUGAGCAUGGCUGC [JL ENG1 3.72] (Eterna round: R96, puzzle: Exclusion NG 1) | – | – | – | 317 | 31.4 | 23.8 |
| AGUAUGUCAGGAUAUCUCGGGUAGUCCACAACAGCUACCGAAGAGAAGGGACAUGAGGAUCACCCAUGUACCAU [EX4 B.23] (Eterna round: R97, puzzle: Exclusion 4) | – | – | – | 19.4 | 30.6 | – |
| ACUAGAUGAGGAUAUACACAUUUUAGUGUUCCUCUAGAUUAACAUGAGGAUCACCCAUGUAGAAGGCAUCAUUA [Exclusion 2 - 9] (puzzle: Exclusion 2) | – | 65 | – | – | – | – |
| UGCGGGCUUUUGAGACCUCACAUGAGGAUCACCCAUGUGCUUGUCUUGUGGGUCGGUCGGUCGUUGGCUGGCUGACG [Sensor-V1 #96] (Eterna round: R97, puzzle: Sensor, turn-off variant 1) | – | – | – | 19.2 | 19.3 | – |
| GUGUUGUCAGGAUAUCUUACAUAACAAUCGUUGUUACCAUUGGAGAAGGGACAUGAGGAUCACCCAUGUUAACC [tap-tap-tappy46] (Eterna round: R97, puzzle: Exclusion 4) | – | – | – | 18.9 | 19.6 | – |
| CAGAGCAGACGGAGAUCCAACAUGAGGAUCACCCAUGUCUCAAAAGCUUUUUGCUCGUCUUAUCCUCCUCUGUUCAC [Esquitian 3] (Eterna round: R97, puzzle: Sensor, turn-off variant 1) | – | – | – | 26 | 30.4 | – |
| UUUAAUUUUUUUUUUUUACAAGCUUUUUGCUCGUCUUAUACAUGAGGAUCACCCAUGUGGGUAAAGGGUAAAUUAUC [JMF 80] (puzzle: Sensor v3, turn-off variant 2) | 23 | 50.9 | 20.9 | – | – | – |
| UUUAUGUAAGGAUAUAUGGGUUUAAAUGAAAAUUUGGGCCCAUAGAAGGUACAUGAGGAUCACCCAUGUAGUGG [-24.4, -24.3 kcal, 32% A] (Eterna round: R97, puzzle: Exclusion 4) | – | – | – | 474 | 641 | – |
| AAGUAGGGAGGAUAUACAUAGAUACAGAUUCAUGUAGAACUACAUGAGGAUCACCCAUGUAGAAGGCCCUAAUA [AJ 37] (Eterna round: R96, puzzle: Exclusion 2) | – | – | – | 255 | 27.9 | 25.1 |
| CCCGGGUCAGGAUAUGGGCCCGGGCCCGAAAGGGCCCGGGCCCAGAAGGGACAUGAGGAUCACCCAUGUCCGGG [-53.1, -50.9 kcal, 20% A] (Eterna round: R97, puzzle: Exclusion 4) | – | – | – | 26.7 | 24.3 | – |
| CUAAAUCAUGUAGGAUAUGCGUGGCAAAGCUAUGCAGAAGGACAUGAGGAUCACCCAUGUCAUUCCGUCUGGGAACAGACGGGA [Mat - Exclusion NG 1 - Mod of JL - D52] (Eterna round: R96, puzzle: Exclusion NG 1) | – | – | – | 158 | 24.5 | 17.5 |
| ACUGGUCGAGGAUAUACAUGAGGAUCACCCAUGUGGUCACGUGACUUCGGUCACGAAUGUAGAAGGCGACCAGU [E3/3-A5] (Eterna round: R97, puzzle: Exclusion 3) | – | – | – | 61.4 | 188 | – |
| CGGGACGUCCUGAUAAUAAGACAUGAGGAUCACCCAUGUCGGCAGGAUAUCAGUCCUUACGGUUUUGAGAAGGGUCGACAACCA [Birace] (Eterna round: R96, puzzle: Exclusion NG 3) | – | – | – | 14.1 | 13.4 | 8.27 |
